Reference: US9790551B2, “Use of TRPC6 mRNA levels in peripheral blood cells for early detection/diagnosis of senile dementia” (Aging Wise Biotechnology, Inc., priority 2013, dated 2017)

What follows are molecules tested on Aβ levels in HEK293APP stable cells (assay: Aβ ELISA, HEK293APP stable cells treated with TAT fusion peptides). Conditions: Table 8; HEK293APP stable cells; TAT = 1.
Assay type: cell-based
Description: (§1) Upon collecting the culture medium of the cells, Aβ40 and Aβ42 levels were quantified with sandwich ELISA kit, respectively (purchased from Invitrogen). The forebrain of the mouse was dissected and separated, and then homogenized with GuHCL. After that, total Aβ was determined by ELISA. For determining TBST(Tris-Buffered Saline and 1% TritonX100, 1% SDS, 1% DOC) soluble and insoluble Aβ, upon TBST homogenation and centrifugation of the forebrain of the mouse, the supernatant was determined for TBST soluble Aβ by ELISA, and the precipitate was determined for TBST insoluble Aβ by ELISA upon another GuHCL homogenate.
In this Example, the second transmembrane domain (487-507aa, TM2) was selected to fuse with cell penetrating peptide TAT and the fusion peptide TAT-TM2 and the mutant thereof TAT-TM2mut were obtained. Their effects on Aβ levels were examined in HEK293APP stable cells.
6.1.2 The Effect of Different Doses of Fusion Protein TAT-TM2 on Aβ Levels in HEK293APP Stable Cells were Determined.
To search for shorter fragments which could inhibit Aβ levels, TM2 was divided into N- and C-terminals and fused with TAT respectively. The effects of TAT-TM2-N, TAT-TM2-C and TAT-TM2-C mutant on Aβ levels in HEK293APP cells was examined.

Molecule | Aβ40 | Aβ42
TAT-TM2-mut: mutated TAT-TM2 peptide, SEQ ID NO.:22, TSCFSWMEMLIISDDIGMDDAGRKKRRQRRRC (fusion protein) | 0.89 ± 0.07 | 0.93 ± 0.09

Same assay, conditions: Table 9; TAT-TM2 variants, HEK293APP cells; TAT = 1

Molecule | Aβ40 | Aβ42
TAT-TM2-C-m1: TAT-TM2-C mutant, SEQ ID NO.:25, DDSWVIGMIWAGRKKRRQRRRC (fusion protein) | 0.54 ± 0.01 | 0.33 ± 0.07
TAT-TM2-N: N-terminal of TM2 fused with TAT, SEQ ID NO.:23, TSCFSWMEMLGRKKRRQRRRC (fusion protein) | 0.97 ± 0.04 | 0.97 ± 0.04
TAT-TM2-C-m3: TAT-TM2-C mutant, SEQ ID NO.:27, IISWVIGMDDAGRKKRRQRRRC (fusion protein) | 1.07 ± 0.11 | 1.07 ± 0.13
TAT-TM2-C: C-terminal of TM2 fused with TAT, SEQ ID NO.:24, IISWVIGMIWAGRKKRRQRRRC (fusion protein) | 0.71 ± 0.07 | 0.72 ± 0.03
TAT-TM2-C-m2: TAT-TM2-C mutant, SEQ ID NO.:26, IISDDIGMIWAGRKKRRQRRRC (fusion protein) | 1.09 ± 0.10 | 1.04 ± 0.15

Each molecule was assayed on Aβ levels in HEK293APP stable cells (assay: Aβ ELISA of culture medium, HEK293APP stable cells transfected with TRPC plasmids). Conditions: Table 1; HEK293APP stable cell, 1 ug plasmid, medium ELISA after 48 hr; empty vector = 1.
Assay type: cell-based
Description: as §1
HEK293APP stable cell line was cultured in DMEM culture solution (containing 200 ng/ml G418) with 10% FBS. C0S7C99 cells were cultured in MEM/F12 culture solution (containing 0.4 ug/ml hygromycin B) with 5% FBS, 1% NEAA, and 200 mM Glutamax. All the transfection was conducted by using Lipofectamin 2000 (Invitrogen).
HEK293 cells were inoculated to 60 mm dishes. When the density was close to 80%, 4 ug APP plasmid was transfected with Lipofectamine 2000. After 4 h, the culture medium was replaced and 400 ng/ml of G418 was added. Cells were passage 2 days later and G418 in the culture was maintained at 400 ng/ml. After 2-3 weeks, the cells not transected died gradually, and the survived cells were HEK293 cells expressing APP. Then, G418 was reduced to and maintained at 200 ng/ml.
TRPC6 or TRPC5 was overexpressed in HEK293APP stable cell lines respectively (Cells were passaged into 12-well plates till the densities were close to 80%. Each well was transfected with 1 ug plasmid using Lipofectamine 2000, and the Aβ levels in the medium were determined with ELISA after 48 hr).
Afterwards, HEK293APP stable cells were passaged in 12-well plate till the density approached 80%. Each well was transfected with lug plasmid using Lipofectamine 2000, and the Aβ levels in the culture medium were determined with ELISA after 48 h. The targeting fragment was primarily narrowed down to 437-507aa.
The […] of TRPC6 contains the first transmembrane regions(TM1), the first extracellular loop (Loop1), and the second transmembrane regions (TM2). To further narrow down the active domain, we constructed 3 variant plasmids, with TM2 region replacement by TM1 region (C6-mut1), reversal of TM2 sequence (C6-mut2) or point mutations within TM2 region(C6-mut3). Then HEK293APP stable cells were passaged in 12-well plate. When the density was close to 80%, every well was transfected with lug plasmid using Lipofectamine 2000, and the Aβ levels in the medium were determined with ELISA after 48 h. The active fragment was further narrowed down to 487-507aa.

Molecule | Aβ40 | Aβ42
TRPC5: TRPC family member TRPC5, overexpressed from plasmid as comparison (protein, UniProt Q9UL62 1-973, looked up, full-length, TRPC family member TRPC5, overexpressed from plasmid as comparison) MAQLYYKKVNYSPYRDRIPLQIVRAETELSAEEKAFLNAVEKGDYATVKQALQEAEIYYNVNINCMDPLGRSALLIAIENENLEIMELLLNHSVYVGDALLYAIRKEVVGAVELLLSYRRPSGEKQVPTLMMDTQFSEFTPDITPIMLAAHTNNYEIIKLLVQKRVTIPRPHQIRCNCVECVSSSEVDSLRHSRSRLNIYKALASPSLIALSSEDPILTAFRLGWELKELSKVENEFKAEYEELSQQCKLFAKDLLDQARSSRELEIILNHRDDHSEELDPQKYHDLAKLKVAIKYHQKEFVAQPNCQQLLATLWYDGFPGWRRKHWVVKLLTCMTIGFLFPMLSIAYLISPRSNLGLFIKKPFIKFICHTASYLTFLFMLLLASQHIVRTDLHVQGPPPTVVEWMILPWVLGFIWGEIKEMWDGGFTEYIHDWWNLMDFAMNSLYLATISLKIVAYVKYNGSRPREEWEMWHPTLIAEALFAISNILSSLRLISLFTANSHLGPLQISLGRMLLDILKFLFIYCLVLLAFANGLNQLYFYYETRAIDEPNNCKGIRCEKQNNAFSTLFETLQSLFWSVFGLLNLYVTNVKARHEFTEFVGATMFGTYNVISLVVLLNMLIAMMNNSYQLIADHADIEWKFARTKLWMSYFDEGGTLPPPFNIIPSPKSFLYLGNWFNNTFCPKRDPDGRRRRRNLRSFTERNADSLIQNQHYQEVIRNLVKRYVAAMIRNSKTHEGLTEENFKELKQDISSFRYEVLDLLGNRKHPRSFSTSSTELSQRDDNNDGSGGARAKSKSVSFNLGCKKKTCHGPPLIRTMPRSSGAQGKSKAESSSKRSFMGPSLKKLGLLFSKFNGHMSEPSSEPMYTISDGIVQQHCMWQDIRYSQMEKGKAEACSQSEINLSEVELGEVQGAAQSSECPLACSSSLHCASSICSSNSKLLDSSEDVFETWGEACDLLMHKWGDGQEEQVTTRL | 0.9900 ± 0.02548 | 0.9488 ± 0.02053

Same assay, conditions: Table 4; TRPC6 fragments, HEK293APP stable cells, 48 h; empty vector = 1

Molecule | Aβ40 | Aβ42
725/930aa: TRPC6 fragment 725~930aa expressed from plasmid (protein, UniProt Q9Y210 725-930, looked up, fragment) AMINSSFQEIEDDADVEWKFARAKLWFSYFEEGRTLPVPFNLVPSPKSLFYLLLKLKKWISELFQGHKKGFQEDAEMNKINEEKKLGILGSHEDLSKLSLDKKQVGHNKQPSIRSSEDFHLNSFNNPPRQYQKIMKRLIKRYVLQAQIDKESDEVNEGELKEIKQDISSLRYELLEEKSQNTEDLAELIRELGEKLSMEPNQEETN | 1.007 ± 0.07289 | 0.9822 ± 0.0099
389/930aa: TRPC6 fragment 389~930aa expressed from plasmid (protein, UniProt Q9Y210 389-930, looked up, fragment) SIWYENLSGLRQQTMAVKFLVVLAVAIGLPFLALIYWFAPCSKMGKIMRGPFMKFVAHAASFTIFLGLLVMNAADRFEGTKLLPNETSTDNAKQLFRMKTSCFSWMEMLIISWVIGMIWAECKEIWTQGPKEYLFELWNMLDFGMLAIFAASFIARFMAFWHASKAQSIIDANDTLKDLTKVTLGDNVKYYNLARIKWDPSDPQIISEGLYAIAVVLSFSRIAYILPANESFGPLQISLGRTVKDIFKFMVIFIMVFVAFMIGMFNLYSYYIGAKQNEAFTTVEESFKTLFWAIFGLSEVKSVVINYNHKFIENIGYVLYGVYNVTMVIVLLNMLIAMINSSFQEIEDDADVEWKFARAKLWFSYFEEGRTLPVPFNLVPSPKSLFYLLLKLKKWISELFQGHKKGFQEDAEMNKINEEKKLGILGSHEDLSKLSLDKKQVGHNKQPSIRSSEDFHLNSFNNPPRQYQKIMKRLIKRYVLQAQIDKESDEVNEGELKEIKQDISSLRYELLEEKSQNTEDLAELIRELGEKLSMEPNQEETN | 0.7699 ± 0.07728 | 0.7217 ± 0.0695
389/510aa: TRPC6 fragment 389~510aa expressed from plasmid (protein, UniProt Q9Y210 389-510, looked up, fragment) SIWYENLSGLRQQTMAVKFLVVLAVAIGLPFLALIYWFAPCSKMGKIMRGPFMKFVAHAASFTIFLGLLVMNAADRFEGTKLLPNETSTDNAKQLFRMKTSCFSWMEMLIISWVIGMIWAEC | 0.5959 ± 0.08036 | 0.6131 ± 0.1299
437/633aa: TRPC6 fragment 437~633aa expressed from plasmid (protein, UniProt Q9Y210 437-633, looked up, fragment) RGPFMKFVAHAASFTIFLGLLVMNAADRFEGTKLLPNETSTDNAKQLFRMKTSCFSWMEMLIISWVIGMIWAECKEIWTQGPKEYLFELWNMLDFGMLAIFAASFIARFMAFWHASKAQSIIDANDTLKDLTKVTLGDNVKYYNLARIKWDPSDPQIISEGLYAIAVVLSFSRIAYILPANESFGPLQISLGRTVKD | 0.8146 ± 0.07986 | 0.7096 ± 0.09708
508/633aa: TRPC6 fragment 508~633aa expressed from plasmid (protein, UniProt Q9Y210 508-633, looked up, fragment) AECKEIWTQGPKEYLFELWNMLDFGMLAIFAASFIARFMAFWHASKAQSIIDANDTLKDLTKVTLGDNVKYYNLARIKWDPSDPQIISEGLYAIAVVLSFSRIAYILPANESFGPLQISLGRTVKD | 1.016 ± 0.04396 | 1.042 ± 0.02037
1/405aa: TRPC6 fragment 1~405aa expressed from plasmid (protein, UniProt Q9Y210 1-405, looked up, fragment) MSQSPAFGPRRGSSPRGAAGAAARRNESQDYLLMDSELGEDGCPQAPLPCYGYYPCFRGSDNRLAHRRQTVLREKGRRLANRGPAYMFSDRSTSLSIEEERFLDAAEYGNIPVVRKMLEECHSLNVNCVDYMGQNALQLAVANEHLEITELLLKKENLSRVGDALLLAISKGYVRIVEAILSHPAFAEGKRLATSPSQSELQQDDFYAYDEDGTRFSHDVTPIILAAHCQEYEIVHTLLRKGARIERPHDYFCKCNDCNQKQKHDSFSHSRSRINAYKGLASPAYLSLSSEDPVMTALELSNELAVLANIEKEFKNDYKKLSMQCKDFVVGLLDLCRNTEEVEAILNGDVETLQSGDHGRPNLSRLKLAIKYEVKKFVAHPNCQQQLLSIWYENLSGLRQQTMAV | 0.9674 ± 0.06376 | 0.9822 ± 0.03662
